The data set concerns the molecule itself. Briefly: cross-linking; recombinant SSX2 diluted to indicated concentrations in 20 mM PBS (pH 7.4), 50 mM NaCl; 0.1% glutaraldehyde, 2 min at 37°C, quenched with glycine; oligomerization analysed by Western blotting. (In general: A western blot detects proteins with antibodies after separation by electrophoresis.)

B1: recombinant SSX2 (natural protein, UniProt Q16385 1-188, looked up)
chain: MNGDDAFARRPTVGAQIPEKIQKAFDDIAKYFSKEEWEKMKASEKIFYVYMKRKYEAMTKLGFKATLPPFMCNKRAEDFQGNDLDNDPNRGNQVERPQMTFGRLQGISPKIMPKKPAEEGNDSEEVPEASGPQNDGKELCPPGKPTTSEKIHERSGPKRGEHAWTHRLRERKQLVIYEEISDPEEDDE
notes: SSX2; GenBank CAA60111.1 is printed for SSX2 in the structure modelling; also called recombinant, purified SSX2; source: recombinant, purified
As to B1, the binding result is given as “binds”.

Source of the values: article PMC6648343, “Remodeling and destabilization of chromosome 1 pericentromeric heterochromatin by SSX proteins” (Nucleic Acids Research, 2019).
